2 variants from PMC5175334 can be followed below.

B1: full-length wild-type TRBP (TRBP-WT), lentivirally expressed in HDLECs [human] / S6K2 (S6 kinase 2), endogenous [human (endogenous in HDLEC)] (parent)
chain 1: MSEEEQGSGTTTGCGLPSIEQMLAANPGKTPISLLQEYGTRIGKTPVYDLLKAEGQAHQPNFTFRVTVGDTSCTGQGPSKKAAKHKAAEVALKHLKGGSMLEPALEDSSSFSPLDSSLPEDIPVFTAAAAATPVPSVVLTRSPPMELQPPVSPQQSECNPVGALQELVVQKGWRLPEYTVTQESGPAHRKEFTMTCRVERFIEIGSGTSKKLAKRNAAAKMLLRVHTVPLDARDGNEVEPDDDHFSIGVGSRLDGLRNRGPGCTWDSLRNSVGEKILSLRSCSLGSLGALGPACCRVLSELSEEQAFHVSYLDIEELSLSGLCQCLVELSTQPATVCHGSATTREAARGEAARRALQYLKIMAGSK
chain 2: MAAVFDLDLETEEGSEGEGEPELSPADACPLAELRAAGLEPVGHYEEVELTETSVNVGPERIGPHCFELLRVLGKGGYGKVFQVRKVQGTNLGKIYAMKVLRKAKIVRNAKDTAHTRAERNILESVKHPFIVELAYAFQTGGKLYLILECLSGGELFTHLEREGIFLEDTACFYLAEITLALGHLHSQGIIYRDLKPENIMLSSQGHIKLTDFGLCKESIHEGAVTHTFCGTIEYMAPEILVRSGHNRAVDWWSLGALMYDMLTGSPPFTAENRKKTMDKIIRGKLALPPYLTPDARDLVKKFLKRNPSQRIGGGPGDAADVQRHPFFRHMNWDDLLAWRVDPPFRPCLQSEEDVSQFDTRFTRQTPVDSPDDTALSESANQAFLGFTYVAPSVLDSIKEGFSFQPKLRSPRRLNSSPRAPVSPLKFSPFEGFRPSPSLPEPTELPLPPLLPPPPPSTTAPLPIRPPSGTKKSKRGRGRPGR

In one assay the parent is B1. Briefly: proximity ligation assay (PLA) in cells. The note with it: with S6K2 (S6 kinase 2), HDLECs transduced with TRBP-DD lentivirus (200 ml/80 000 cells), endogenous TRBP also present, parent: 31, read off a plot.
As to chain 1 S283D S286D, the response (PLA events per HDLEC) came out at 7.

The variants in the next assay derive from B1. Description: co-immunoprecipitation, band quantification. The note with it: with S6K2, lentivirally over-expressed in HEK293 cells; HEK293 cells over-expressing S6K2 and TRBP-WT or TRBP-DD; parent: 1; read off a plot.
chain 1 S283D S286D: the ratio to parent came out at 0.16.

Variants of B1 are the subject of the next assay. Briefly: proximity ligation assay (PLA) in cells. The note with it: with S6K2 (S6 kinase 2), HDLECs transduced with TRBP-AA lentivirus (600 ml/80 000 cells), endogenous TRBP also present, parent: 31, read off a plot.
Consider chain 1 S283A S286A, for which the response (PLA events per HDLEC) was 20.
